Measured values taken from publication PMC10709394, “Structural basis for nucleosome binding and catalysis by the yeast Rpd3S/HDAC holoenzyme” (Cell Research, 2023).

B1: Rpd3 (enzyme, yeast, UniProt P32561 1-433, looked up)
chain: MVYEATPFDPITVKPSDKRRVAYFYDADVGNYAYGAGHPMKPHRIRMAHSLIMNYGLYKKMEIYRAKPATKQEMCQFHTDEYIDFLSRVTPDNLEMFKRESVKFNVGDDCPVFDGLYEYCSISGGGSMEGAARLNRGKCDVAVNYAGGLHHAKKSEASGFCYLNDIVLGIIELLRYHPRVLYIDIDVHHGDGVEEAFYTTDRVMTCSFHKYGEFFPGTGELRDIGVGAGKNYAVNVPLRDGIDDATYRSVFEPVIKKIMEWYQPSAVVLQCGGDSLSGDRLGCFNLSMEGHANCVNYVKSFGIPMMVVGGGGYTMRNVARTWCFETGLLNNVVLDKDLPYNEYYEYYGPDYKLSVRPSNMFNVNTPEYLDKVMTNIFANLENTKYAPSVQLNHTPRDAEDLGDVEEDSAEAKDTKGGSQYARDLHVEHDNEFY
notes: Rpd3, yeast class I histone deacetylase, endogenous catalytic subunit of Rpd3S; Subunit of the endogenous holoenzyme; also called Rpd3/HDAC
B2: Rco1 (natural protein, yeast, UniProt Q04779 1-684, looked up)
chain: MDTSKKDTTRSPSHSNSSSPSSSSLSSSSSKEKKRPKRLSSQNVNYDLKRRKIITSEGIERSFKNEHSNLAVEDNIPEEEPKELLEKDSKGNIIKLNEPSTISEDSKVSVTGLPLNKGPSEKIKRESLWNYRKNLGGQSNNSEMTLVPSKRFTQVPKNFQDLNRNDLKTFLTENMTEESNIRSTIGWNGDIINRTRDREPESDRDNKKLSNIRTKIILSTNATYDSKSKLFGQNSIKSTSNASEKIFRDKNNSTIDFENEDFCSACNQSGSFLCCDTCPKSFHFLCLDPPIDPNNLPKGDWHCNECKFKIFINNSMATLKKIESNFIKQNNNVKIFAKLLFNIDSHNPKQFQLPNYIKETFPAVKTGSRGQYSDENDKIPLTDRQLFNTSYGQSITKLDSYNPDTHIDSNSGKFLICYKCNQTRLGSWSHPENSRLIMTCDYCQTPWHLDCVPRASFKNLGSKWKCPLHSPTKVYKKIHHCQEDNSVNYKVWKKQRLINKKNQLYYEPLQKIGYQNNGNIQIIPTTSHTDYDFNQDFKITQIDENSIKYDFFDKIYKSKMVQKRKLFQFQESLIDKLVSNGSQNGNSEDNMVKDIASLIYFQVSNNDKSSNNKSASKSNNLRKLWDLKELTNVVVPNELDSIQFNDFSSDEIKHLLYLKKIIESKPKEELLKFLNIENPENQSE
notes: Two copies stand in the holoenzyme; also called Rco1 I; Rco1 II

How the values were obtained:
Assay in all cases: cryo-EM structure; endogenous Rpd3S incubated with an excess of H3Kc36me3 mononucleosome (70-bp DNA link at one end), fractionated by gel filtration, concentrated, no cross-linking; 3.7 Å
Rpd3 = target: B1; conditions: both partners purified
Rco1 = target: B2; conditions: both partners purified
Sin3 = target: T1, Sin3 (yeast, UniProt P22579 1-1536); conditions: both partners purified
T1 construct: Sin3, yeast, endogenous scaffold subunit of Rpd3S
T1 sequence (P22579 whole entry): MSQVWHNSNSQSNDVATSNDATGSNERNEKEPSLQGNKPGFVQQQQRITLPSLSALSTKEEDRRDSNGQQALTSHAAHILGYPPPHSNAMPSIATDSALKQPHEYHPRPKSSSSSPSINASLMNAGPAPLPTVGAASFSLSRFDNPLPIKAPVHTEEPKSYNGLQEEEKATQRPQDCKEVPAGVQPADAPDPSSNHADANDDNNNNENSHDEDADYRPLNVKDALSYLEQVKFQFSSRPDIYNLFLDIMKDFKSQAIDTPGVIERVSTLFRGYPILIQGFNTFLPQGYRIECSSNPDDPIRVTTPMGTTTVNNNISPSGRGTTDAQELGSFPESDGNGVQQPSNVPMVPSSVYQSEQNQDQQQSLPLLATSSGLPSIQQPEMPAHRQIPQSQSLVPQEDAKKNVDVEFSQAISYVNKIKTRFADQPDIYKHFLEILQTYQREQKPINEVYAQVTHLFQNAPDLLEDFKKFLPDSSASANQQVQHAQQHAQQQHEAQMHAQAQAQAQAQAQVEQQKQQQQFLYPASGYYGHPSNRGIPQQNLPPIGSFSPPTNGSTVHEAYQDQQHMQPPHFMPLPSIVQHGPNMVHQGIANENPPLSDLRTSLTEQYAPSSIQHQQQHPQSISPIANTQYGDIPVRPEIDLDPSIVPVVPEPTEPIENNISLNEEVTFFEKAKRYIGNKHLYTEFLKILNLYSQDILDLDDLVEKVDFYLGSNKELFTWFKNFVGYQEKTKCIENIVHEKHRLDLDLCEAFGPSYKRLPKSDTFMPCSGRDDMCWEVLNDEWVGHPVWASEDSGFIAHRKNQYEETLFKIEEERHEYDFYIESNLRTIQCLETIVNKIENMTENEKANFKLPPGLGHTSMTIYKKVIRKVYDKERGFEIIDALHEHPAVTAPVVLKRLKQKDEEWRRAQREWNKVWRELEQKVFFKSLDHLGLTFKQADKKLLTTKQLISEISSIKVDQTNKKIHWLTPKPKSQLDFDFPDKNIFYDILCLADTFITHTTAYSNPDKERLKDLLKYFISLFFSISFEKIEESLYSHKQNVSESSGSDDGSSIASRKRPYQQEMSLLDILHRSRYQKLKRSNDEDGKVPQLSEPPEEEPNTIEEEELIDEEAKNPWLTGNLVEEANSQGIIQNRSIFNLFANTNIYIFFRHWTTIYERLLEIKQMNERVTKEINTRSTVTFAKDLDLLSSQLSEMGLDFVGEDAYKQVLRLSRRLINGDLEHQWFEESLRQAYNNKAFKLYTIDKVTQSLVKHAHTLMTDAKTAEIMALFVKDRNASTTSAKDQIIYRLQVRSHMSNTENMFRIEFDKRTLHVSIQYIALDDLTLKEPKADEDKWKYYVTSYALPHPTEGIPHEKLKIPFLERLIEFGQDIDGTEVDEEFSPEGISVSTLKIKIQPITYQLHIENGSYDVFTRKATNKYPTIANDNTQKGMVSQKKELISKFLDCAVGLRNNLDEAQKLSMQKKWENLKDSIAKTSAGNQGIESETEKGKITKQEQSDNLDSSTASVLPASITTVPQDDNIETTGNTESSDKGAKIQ

[1] = target: the molecule itself

Row | binding result (Rpd3) | binding result (Rco1) | binding result (Sin3) | Binder | stoichiometry N [1]
1 | binds | binds | binds | Eaf3 (natural protein, yeast, UniProt Q12432 1-401, looked up, Two copies stand in the holoenzyme; also called Eaf3 I; Eaf3 II) MVDLEQEFALGGRCLAFHGPLMYEAKILKIWDPSSKMYTSIPNDKPGGSSQATKEIKPQKLGEDESIPEEIINGKCFFIHYQGWKSSWDEWVGYDRIRAYNEENIAMKKRLANEAKEAKKSLLEQQKKKKLSTSLGGPSNGGKRKGDSRSNASISKSTSQSFLTSSVSGRKSGRSSANSLHPGSSLRSSSDQNGNDDRRRSSSLSPNMLHHIAGYPTPKISLQIPIKLKSVLVDDWEYVTKDKKICRLPADVTVEMVLNKYEHEVSQELESPGSQSQLSEYCAGLKLYFDKCLGNMLLYRLERLQYDELLKKSSKDQKPLVPIRIYGAIHLLRLISVLPELISSTTMDLQSCQLLIKQTEDFLVWLLMHVDEYFNDKDPNRSDDALYVNTSSQYEGVALGM | –
2 | – | binds | binds | B1 | –
3 | – | – | binds | B2 | 2
